This is an account of results in CN116262787A (BOAOXIN BIOTECHNOLOGY NANJING CO LTD, dated 2023).

Assay [1] addresses T1, 人LAG-3 on the surface of a stable 293T cell line overexpressing it (human, UniProt P18627 23-525).
T1 construct: whole, on cells; also called 表面过表达人LAG-3的293T细胞
T1 sequence (looked up): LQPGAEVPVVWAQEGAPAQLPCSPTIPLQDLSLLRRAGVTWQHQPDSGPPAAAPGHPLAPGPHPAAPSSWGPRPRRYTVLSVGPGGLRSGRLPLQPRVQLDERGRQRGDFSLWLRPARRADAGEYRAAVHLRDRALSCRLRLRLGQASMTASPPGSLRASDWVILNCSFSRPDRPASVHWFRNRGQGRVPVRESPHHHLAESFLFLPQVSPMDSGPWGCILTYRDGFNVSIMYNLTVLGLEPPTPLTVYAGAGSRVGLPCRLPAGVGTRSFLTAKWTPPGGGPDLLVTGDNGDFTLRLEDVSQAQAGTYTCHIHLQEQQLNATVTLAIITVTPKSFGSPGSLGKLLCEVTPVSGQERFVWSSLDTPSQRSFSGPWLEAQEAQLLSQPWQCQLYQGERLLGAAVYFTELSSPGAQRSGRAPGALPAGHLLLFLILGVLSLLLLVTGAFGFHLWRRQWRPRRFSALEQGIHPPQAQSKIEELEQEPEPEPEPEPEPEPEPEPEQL
The assay is described as follows: flow cytometry on 293T cells overexpressing human LAG-3.

Assay [2] concerns the target T2, 小鼠LAG-3-his (in-house, mouse LAG-3 Uniprot #Q61790, Gly24-Leu442) (mouse, UniProt Q61790 24-442).
T2 construct: range 24-442; also called 鼠LAG-3蛋白; not shown: his tag
T2 sequence (looked up): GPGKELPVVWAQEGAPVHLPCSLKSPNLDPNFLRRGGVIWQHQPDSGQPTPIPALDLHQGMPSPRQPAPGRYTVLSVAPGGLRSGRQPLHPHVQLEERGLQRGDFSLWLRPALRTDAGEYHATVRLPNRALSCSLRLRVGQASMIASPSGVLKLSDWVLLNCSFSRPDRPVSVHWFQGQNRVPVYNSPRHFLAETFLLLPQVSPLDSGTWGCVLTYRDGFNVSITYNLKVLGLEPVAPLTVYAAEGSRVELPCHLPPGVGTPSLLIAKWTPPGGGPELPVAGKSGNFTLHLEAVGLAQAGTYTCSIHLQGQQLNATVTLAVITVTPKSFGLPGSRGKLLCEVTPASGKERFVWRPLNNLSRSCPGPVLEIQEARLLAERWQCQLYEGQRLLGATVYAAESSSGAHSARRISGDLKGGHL
Description: indirect ELISA, coated mouse LAG-3-his.

The target of assay [3] is T3, 生物素标记的人LAG-3蛋白 (LAG-3-Fc-bio, cat#LA3-H82Fb, Acro) (human, UniProt P18627 23-450, biotin label (site not stated)).
T3 construct: Bought protein (Acro LA3-H82Fb); also called 人LAG-3-Fc-bio; not shown: Fc part of the bought fusion
T3 sequence (looked up): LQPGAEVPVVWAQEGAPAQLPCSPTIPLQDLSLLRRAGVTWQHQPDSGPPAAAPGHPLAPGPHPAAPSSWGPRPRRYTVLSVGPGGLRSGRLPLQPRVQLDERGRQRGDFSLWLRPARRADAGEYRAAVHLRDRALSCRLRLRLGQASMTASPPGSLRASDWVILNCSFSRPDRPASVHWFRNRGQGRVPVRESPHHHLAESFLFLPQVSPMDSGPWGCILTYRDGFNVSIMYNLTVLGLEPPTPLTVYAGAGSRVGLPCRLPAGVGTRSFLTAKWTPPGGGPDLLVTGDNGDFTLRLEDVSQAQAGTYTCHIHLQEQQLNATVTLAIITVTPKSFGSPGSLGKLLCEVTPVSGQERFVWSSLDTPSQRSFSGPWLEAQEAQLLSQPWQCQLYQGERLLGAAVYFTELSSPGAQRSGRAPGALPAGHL
The assay is described as follows: capture ELISA: antibody captured on GAM-Fab/GAH-Fab, LAG-3-Fc-bio in solution, SA-HRP.

B1: 抗人LAG-3抗体G1A7 (mouse anti-human LAG-3 monoclonal antibody G1A7) (antibody, V domains shown)
VH: EVQLQQSGPVLVKPGASVKMSCKASGYTFTHYYMNWVKQSHGKSLEWIGVINPYNGDTSYKQNFKGKATLTVDKTSSTAYMDLNSLTSEDSAVYYCARDDGYYQWYFDVWGTGTTVTVSS
VL: DIQLTQSPSSLSASLGERVSLTCRASQDIGSRLIWLQQGPDGTIKRLIFATSSLDSGVPKRFSGSRSGSDYSLTISSLESEDFVDYYCLQCASSPPTFGGGTKLEIK
notes: Tested as the mouse monoclonal antibody purified from hybridoma culture; also called 本发明的抗体G1A7
On to B1, for which the binding result in assay [1] is “binds”; in assay [2], “no binding (tested: from 66.7nM, serial 5-fold dilution)”; in assay [3], “binds”.

B2: Relatlimab (BRISTOL-MYERS SQUIBB COMPANY, BMS), reference antibody, prepared in-house (antibody, human IgG4 S228P, kappa, V domains shown)
VH: QVQLQQWGAGLLKPSETLSLTCAVYGGSFSDYYWNWIRQPPGKGLEWIGEINHRGSTNSNPSLKSRVTLSLDTSKNQFSLKLRSVTAADTAVYYCAFGYSDYEYNWFDPWGQGTLVTVSS
VL: EIVLTQSPATLSLSPGERATLSCRASQSISSYLAWYQQKPGQAPRLLIYDASNRATGIPARFSGSGSGTDFTLTISSLEPEDFAVYYCQQRSNWPLTFGQGTNLEIKR
notes: also called 参照抗体; 参照抗体Relatlimab
As for B2, the binding result in assay [2] is listed as “no binding (tested: from 66.7nM, serial 5-fold dilution)”.
